The results in this text go back to article PMC6938703 (Science Advances, 2020).

Where a chain is given by its changes, count along the chain named. Numbers in names are those of the source.

The data set “crystal structure” deals with the molecule itself. The data set is described as follows: crystal structure.
The data set “SEC-MALS” concerns the molecule itself. Description: SEC-MALS. In general terms: Size exclusion chromatography separates by hydrodynamic size, large species first.

B1: Selenomethionine-substituted dARC1 CA (residues S39 to N205) (domain or fragment, D. melanogaster)
chain: SRGKGNFSACTHSFGGTRDHDVVEEFIGNIETYKDVEGISDENALKGISLLFYGMASTWWQGVRKEATTWKEAIALIREHFSPTKPAYQIYMEFFQNKQDDHDPIDTFVIQKRALLAQLPSGRHDEETELDLLFGLLNIKYRKHISRHSVHTFKDLLEQGRIIEHNNPLE
modifications: selenomethionine in place of methionine
Turning to B1, in the data set “crystal structure”, the binding result is reported as “binds”.

B2: dARC1 CA F133A (domain or fragment, D. melanogaster)
chain: B1 chain with F95A
Consider B2, for which, in “SEC-MALS”, the binding result is on record as “binds”.
